Positions count from the first letter of the chain named.
T1: FLAG-Npas4 (Mus musculus (mouse), UniProt Q8BGD7 1-802)
T1 sequence: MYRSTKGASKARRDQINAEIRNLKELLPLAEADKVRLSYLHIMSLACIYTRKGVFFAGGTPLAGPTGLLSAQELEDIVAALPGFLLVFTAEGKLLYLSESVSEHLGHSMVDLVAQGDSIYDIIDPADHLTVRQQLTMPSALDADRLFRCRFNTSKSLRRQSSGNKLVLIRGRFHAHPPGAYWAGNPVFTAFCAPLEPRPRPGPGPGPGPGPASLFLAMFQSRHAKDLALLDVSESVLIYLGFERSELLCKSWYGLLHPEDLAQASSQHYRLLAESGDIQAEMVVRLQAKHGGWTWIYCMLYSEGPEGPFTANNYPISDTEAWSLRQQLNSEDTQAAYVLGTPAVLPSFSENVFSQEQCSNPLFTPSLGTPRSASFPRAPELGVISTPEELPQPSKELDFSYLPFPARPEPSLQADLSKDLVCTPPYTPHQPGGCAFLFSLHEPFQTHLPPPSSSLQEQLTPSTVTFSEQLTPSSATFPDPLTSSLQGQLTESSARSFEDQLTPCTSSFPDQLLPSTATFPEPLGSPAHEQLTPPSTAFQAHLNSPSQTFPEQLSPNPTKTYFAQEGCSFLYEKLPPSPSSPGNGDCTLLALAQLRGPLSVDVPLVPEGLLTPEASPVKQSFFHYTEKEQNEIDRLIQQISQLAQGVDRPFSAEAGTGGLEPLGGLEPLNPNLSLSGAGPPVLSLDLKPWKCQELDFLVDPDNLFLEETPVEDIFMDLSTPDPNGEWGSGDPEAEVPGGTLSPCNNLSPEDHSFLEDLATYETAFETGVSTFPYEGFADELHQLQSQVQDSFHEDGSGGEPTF

B1: Iqsec3 promoter WT probe (dsDNA)
DNA 1: CGGGAAGCAGGGTTCCTCACGAAGCCCAGAGGTGGGAGGTGG
DNA 2: CCACCTCCCACCTCTGGGCTTCGTGAGGAACCCTGCTTCCCG
B2: Iqsec3 promoter MT probe (dsDNA)
DNA 1: B1 DNA 1 with C18A, C20A, G21A
DNA 2: B1 DNA 2 with C22T, G23T, G25T

Biological target: T1, FLAG-Npas4
Test: EMSA

Binder	binding result
B1	binds
B2	no binding
